Data reported in the RNAGym collection of RNA variant scans (doi:10.7554/elife.80360).

B1: Hammerhead Ribozyme (parent)
chain: ACCGGAUGUGCUUUCCGGUCUGAUGAGUCCGUGAGGACGAAACAG

Variants of: B1
Test: self-cleavage, relative activity (ratio to wild type); higher = more cleavage; co-transcriptional

Variant	self-cleavage
G25C U32G	0.281
G25U	0.331
G25U A26C	0.288
G25U A26G	0.298
G25U A26U	0.343
G25U A34C	0.317
G25U A34G	0.261
G25U A34U	0.294
G25U A37C	0.294
G25U A37G	0.287
G25U A37U	0.302
G25U A40C	0.272
G25U A40G	0.328
G25U A40U	0.417
G25U A41C	0.316
G25U A41G	0.35
G25U A41U	0.337
G25U A42C	0.29
G25U A42G	0.246
G25U A42U	0.349
G25U A44C	0.42
G25U A44G	0.669
G25U A44U	0.373
G25U C29A	0.321

Variant	self-cleavage
G25U C29G	0.313
G25U C29U	0.273
G25U C30A	0.293
G25U C30G	0.291
G25U C30U	0.259
G25U C38A	0.328
G25U C38G	0.382
G25U C38U	0.37
G25U C43A	0.359
G25U C43G	0.357
G25U C43U	0.36
G25U G27A	0.34
G25U G27C	0.285
G25U G27U	0.31
G25U G31A	0.338
G25U G31C	0.298
G25U G31U	0.419
G25U G33A	0.374
G25U G33C	0.305
G25U G33U	0.325
G25U G35A	0.282
G25U G35C	0.259
G25U G35U	0.326
G25U G36A	0.365

Variant	self-cleavage
G25U G36C	0.312
G25U G36U	0.334
G25U G39A	0.318
G25U G39C	0.302
G25U G39U	0.295
G25U G45A	0.306
G25U G45C	0.398
G25U G45U	0.323
G25U U28A	0.385
G25U U28C	0.274
G25U U28G	0.314
G25U U32A	0.32
G25U U32C	0.268
G25U U32G	0.392
A26C	0.7
A26C A34C	0.434
A26C A34G	0.349
A26C A34U	0.344
A26C A37C	0.518
A26C A37G	0.671
A26C A37U	0.506
A26C A40C	0.274
A26C A40G	0.285
A26C A40U	0.352

Variant	self-cleavage
A26C A41C	0.369
A26C A41G	0.307
A26C A41U	0.299
A26C A42C	0.305
A26C A42G	0.371
A26C A42U	0.393
A26C A44C	0.406
A26C A44G	0.803
A26C A44U	0.344
A26C C29A	0.241
A26C C29G	0.303
A26C C29U	0.448
A26C C30A	0.426
A26C C30G	0.33
A26C C30U	0.753
A26C C38A	0.657
A26C C38G	0.33
A26C C38U	0.503
A26C C43A	0.349
A26C C43G	0.31
A26C C43U	0.343
A26C G27A	0.313
A26C G27C	0.303
A26C G27U	0.397

Variant	self-cleavage
A26C G31A	0.687
A26C G31C	0.411
A26C G31U	0.727
A26C G33A	0.655
A26C G33C	0.559
A26C G33U	0.774
A26C G35A	0.431
A26C G35C	0.489
A26C G35U	0.334
A26C G36A	0.395
A26C G36C	0.277
A26C G36U	0.355
A26C G39A	0.366
A26C G39C	0.45
A26C G39U	0.351
A26C G45A	0.304
A26C G45C	0.398
A26C G45U	0.45
A26C U28A	0.572
A26C U28C	0.524
A26C U28G	0.46
A26C U32A	0.659
A26C U32C	0.803
A26C U32G	0.42

Variant	self-cleavage
A26G	0.379
A26G A34C	0.346
A26G A34G	0.305
A26G A34U	0.353
A26G A37C	0.252
A26G A37G	0.424
A26G A37U	0.352
A26G A40C	0.399
A26G A40G	0.328
A26G A40U	0.412
A26G A41C	0.338
A26G A41G	0.284
A26G A41U	0.25
A26G A42C	0.231
A26G A42G	0.225
A26G A42U	0.286
A26G A44C	0.266
A26G A44G	0.654
A26G A44U	0.347
A26G C29A	0.402
A26G C29G	0.283
A26G C29U	0.365
A26G C30A	0.307
A26G C30G	0.245

Variant	self-cleavage
A26G C30U	0.404
A26G C38A	0.325
A26G C38G	0.332
A26G C38U	0.337
A26G C43A	0.325
A26G C43G	0.31
A26G C43U	0.285
A26G G27A	0.27
A26G G27C	0.297
A26G G27U	0.322
A26G G31A	0.327
A26G G31C	0.324
A26G G31U	0.516
A26G G33A	0.401
A26G G33C	0.409
A26G G33U	0.344
A26G G35A	0.286
A26G G35C	0.35
A26G G35U	0.283
A26G G36A	0.319
A26G G36C	0.307
A26G G36U	0.412
A26G G39A	0.368
A26G G39C	0.309

Variant	self-cleavage
A26G G39U	0.343
A26G G45A	0.3
A26G G45C	0.389
A26G G45U	0.338
A26G U28A	0.274
A26G U28C	0.383
A26G U28G	0.335
A26G U32A	0.373
A26G U32C	0.328
A26G U32G	0.412
A26U	0.848
A26U A34C	0.355
A26U A34G	0.482
A26U A34U	0.584
A26U A37C	0.509
A26U A37G	0.736
A26U A37U	0.545
A26U A40C	0.331
A26U A40G	0.344
A26U A40U	0.341
A26U A41C	0.295
A26U A41G	0.434
A26U A41U	0.29
A26U A42C	0.293

Variant	self-cleavage
A26U A42G	0.303
A26U A42U	0.261
A26U A44C	0.477
A26U A44G	1.04
A26U A44U	0.443
A26U C29A	0.311
A26U C29G	0.475
A26U C29U	0.598
A26U C30A	0.507
A26U C30G	0.423
A26U C30U	0.703
A26U C38A	0.6
A26U C38G	0.318
A26U C38U	0.783
A26U C43A	0.33
A26U C43G	0.415
A26U C43U	0.382
A26U G27A	0.518
A26U G27C	0.317
A26U G27U	0.315
A26U G31A	0.738
A26U G31C	0.633
A26U G31U	0.748
A26U G33A	0.961

Variant	self-cleavage
A26U G33C	0.546
A26U G33U	0.659
A26U G35A	0.52
A26U G35C	0.377
A26U G35U	0.491
A26U G36A	0.458
A26U G36C	0.265
A26U G36U	0.446
A26U G39A	0.366
A26U G39C	0.378
A26U G39U	0.296
A26U G45A	0.359
A26U G45C	0.362
A26U G45U	0.476
A26U U28A	0.464
A26U U28C	0.646
A26U U28G	0.437
A26U U32A	0.846
A26U U32C	0.819
A26U U32G	0.466
G27A	0.897
G27A A34C	0.431
G27A A34G	0.513
G27A A34U	0.574

Variant	self-cleavage
G27A A37C	0.743
G27A A37G	0.691
G27A A37U	0.522
G27A A40C	0.428
G27A A40G	0.341
G27A A40U	0.304
G27A A41C	0.339
G27A A41G	0.361
G27A A41U	0.319
G27A A42C	0.308
G27A A42G	0.321
G27A A42U	0.301
G27A A44C	0.373
G27A A44G	1.07
G27A A44U	0.53
G27A C29A	0.42
G27A C29G	0.412
G27A C29U	0.598
G27A C30A	0.529
G27A C30G	0.458
G27A C30U	0.69
G27A C38A	0.871
G27A C38G	0.623
G27A C38U	0.965

Variant	self-cleavage
G27A C43A	0.347
G27A C43G	0.415
G27A C43U	0.33
G27A G31A	0.61
G27A G31C	0.864
G27A G31U	0.923
G27A G33A	1.1
G27A G33C	0.675
G27A G33U	0.976
G27A G35A	0.505
G27A G35C	0.438
G27A G35U	0.411
G27A G36A	0.401
G27A G36C	0.316
G27A G36U	0.391
G27A G39A	0.247
G27A G39C	0.285
G27A G39U	0.348
G27A G45A	0.416
G27A G45C	0.378
G27A G45U	0.472
G27A U28A	0.643
G27A U28C	0.645
G27A U28G	0.695

Variant	self-cleavage
G27A U32A	0.736
G27A U32C	0.803
G27A U32G	0.628
G27C	0.843
G27C A34C	0.411
G27C A34G	0.653
G27C A34U	0.436
G27C A37C	0.491
G27C A37G	0.677
G27C A37U	0.479
G27C A40C	0.411
G27C A40G	0.297
G27C A40U	0.356
G27C A41C	0.339
G27C A41G	0.457
G27C A41U	0.333
G27C A42C	0.272
G27C A42G	0.267
G27C A42U	0.313
G27C A44C	0.38
G27C A44G	0.988
G27C A44U	0.445
G27C C29A	0.414
G27C C29G	0.279

Variant	self-cleavage
G27C C29U	0.576
G27C C30A	0.401
G27C C30G	0.459
G27C C30U	0.818
G27C C38A	0.863
G27C C38G	0.426
G27C C38U	0.792
G27C C43A	0.291
G27C C43G	0.26
G27C C43U	0.399
G27C G31A	0.885
G27C G31C	0.666
G27C G31U	0.772
G27C G33A	0.864
G27C G33C	0.723
G27C G33U	0.686
G27C G35A	0.443
G27C G35C	0.394
G27C G35U	0.402
G27C G36A	0.392
G27C G36C	0.257
G27C G36U	0.371
